We go through five sequences from the DeepSol protein solubility set.

The data set in a line: soluble on expression in E. coli; label from the status in PepcDB or PDB records.
With “IPFPLSAYTHGGEFVRQLDKRILILDGAMGTMIQRYKLGEADFRGERFAEHHKDLKGDNELLSLVRPDVIAEIHRQYLEAGADVIETNTFGATSIAQGDYDLPELAYEMNLESARLARAACDAYSTPEHPRFVAGALGPQPKTASISPDVNDPGARNVTFDELRAAYVEQLNGLLDGGIDIVLIETIFDTLNAKAAIFAVEEAFEARGVRLPVMISGTVTDASGRILSGQTVEAFWNSVRHARPVTIGLNCALGAALMRPYVAELSKICDTYVCVYPNAGLPNPMAETGFDETPADTSALLEEFAQAGLVNMAGGCCGTTPEHIRAIAGKVAALTPRAVPEVPVKTRLSGLEALNIDDETLFVNVGERTNVTGSKMF”, the “soluble on expression in E. coli” value is on record as “not soluble”. With “MDADASTITPEELDFIRQRALRRFDSIVPTAGREGTEIASDIFKGRTLAIYTSGGDSQGMNSAVRSITRMAIYCGCKVYLIYEGYEGMIEGGDFIKEATWNTVSDIIQQGGTIIGSARSSEFRTREGRLKAATNLINRGIGRLVCIGGDGSLTGANTFRLEWTDLVQELVKNQRVTAAAAKKIPYIQIVGLVGSIDNDFCGTDMTIGTDSALQRIISSIDAVVATAQSHQRAFVIEVMGRHCGYLALVAALASEADFCFIPEWPAPENWRDVLCDKLSQMRSEGQRLNIIIVAEGAIDRDGKAITAEDVKTAVKEKLKYDTRVTILGHVQRGGAPSAFDRLLGCRMGAEAVFALMEMTEESEPCVISIDGNVMVRVPLLKCVERTQMVQKAMADKDWTTAVMLRGRSFQRNLETYKLLTKMRTVEKDNLSEGHKFNVAVINVGAPAGGMNAAVRSYVRMALYHQCTVYGIEDSFEGLANGSFKQFKWSDVTNWAMNGGSFLGTQKSLPTEKTMPQLAAQLKKHNIQALLLVGGFEAYHSTIILAENREKYPEFCIPMCVIPCTISNNVPGTMVSLGSDTAINEICQMIDKIKQSATGTKRRVFIVETMGGYCGYLATLSALSSGADNAYIFEEPFTVQDLSDDVDVILSKMEVGAKRYLVVRNEWADKNLTTDFVQNLFDSEGKKNFTTRVNVLGHVQQGGSPTPFDRNMGTKLAARALEFLLIQLKENLTADNKVIAKSAHTATLLGLKGRKVVFTPVQDLKKETDFEHRLPSEQWWMALRPLLRVLARHRSTVESSAILESVEEESADSHMF”, the “soluble on expression in E. coli” value is “not soluble”. In the case of “MSLKPSDFVKYLQRMIALTDTGLTFTKDPFDRERYEDLRSLLSEMLNQVSDLDAEEVAEVLKPTSAYATPLMDVRAWIVEDEKICLVRRQGEDSWALPGGFGEVGYSPTENILKEIEEETGFKAKVERLLAVFDTNRFQLQSKQYAKFVFECKLLDGQFQENQEIAALQFFTIDQLPNLSEKRITKEQIEILWQVYQGQREQYLDEGGSHHHHHH”, the “soluble on expression in E. coli” value was “soluble”. Next, “GAMIRSRQPLLDALGVDLPDELLSLALTHRSYAYENGGLPTNERLEFLGDAVLGLTITDALFHRHPDRSEGDLAKLRASVVNTQALADVARRLCAEGLGVHVLLGRGEANTGGADKSSILADGMESLLGAIYLQHGMEKAREVILRLFGPLLDAAPTLGAGLDWKTSLQELTAARGLGAPSYLVTSTGPDHDKEFTAVVVVMDSEYGSGVGRSKKEAEQKAAAAAWKALEVLDNAMPGKTSA”: “soluble”. Next, “MGSDKIHHHHHHLVEKRRVMSNLETNQGRLAAIETFAERCPDCGSLLYRPKGLSKVTGKKMAGVCMNCGYKQPPTEPKNVTPDMEKEARKNRTVGYYLAYSVFSTDAIIAKDFNNFHTDGSLGQQQLKLFAVGLSNKICRNEVVHALIIGDTGVGKSHIANGILIDTQAKTGYRKTCLFIDWNALMQRLKSGMSANAQDVRMKNEKIMHEIGKADVVVIDDLGSERGSDFDRQTADDVFRMREDKATIVTTNLHGQDLNKRYGERTMSRMAKHGQGNSFGVKGILDQRKEALP”: “not soluble”.
